The values below come from paper PMC4478124.

What all share (assay): SPR
A general note: Surface plasmon resonance follows binding to a sensor surface in real time, without labels.

In test [1] the target is MBP-P66M-Del202-208 fusion protein (Borrelia burgdorferi) (UniProt H7C7N8).
The target of test [2] is MBP-P66M fusion protein (wild-type middle portion of Borrelia burgdorferi P66, a.a. 170-404) (Borrelia burgdorferi) (UniProt H7C7N8).
The target of test [3] is MBP-P66M-D205A,D207A fusion protein (Borrelia burgdorferi) (UniProt H7C7N8).

Consider “purified recombinant mouse integrin αvβ3 (carrier free) (from UniProt P43406 31-1044; O54890 26-717) (receptor)”, for which the Kd stood at 264 µM in test [1] and 20.3 µM in test [3]. The kon in test [2] was determined as 112000 M⁻¹ s⁻¹; in test [3] it was 1450 M⁻¹ s⁻¹.

As for “purified recombinant human integrin αvβ3 (carrier free) (from UniProt P06756 31-1048; P05106 27-718) (receptor)”, the results for the Kd in test [1] and in test [3] were 178 µM and 29.3 µM, respectively. In addition, the kon worked out at 321000 M⁻¹ s⁻¹ in test [2] and 710 M⁻¹ s⁻¹ in test [3].

Broadly, the Kd is the free concentration of one partner at which half of the binding sites on the other are occupied at equilibrium, for simple one-to-one binding. High values mean lower affinity, low ones higher affinity. A word on the kon: it is the rate constant with which the complex forms. Lower therefore signals slower complex formation.
